PMC6256756

Substrate: Nc1nc2c(ncn2[C@@H]2O[C@H](COP(=O)(O)OP(=O)(O)OP(=O)(O)O)[C@@H](O)[C@H]2O)c(=O)[nH]1
Assay: steady-state kinetics, PK/LDH coupled GTPase assay (Km)
Type: biochemical, Burkholderia cenocepacia
Conditions: Mg2+ GTP binding site

B1: FtsZ (BcFtsZ) (Burkholderia cenocepacia J2315) (protein)
chain: MEFEMLETETNGTIIKVVGVGGAGGNAVQHMINRGVQGVDFIVMNTDAQALSRSRASSVIQLGNTGLGAGAKPEMGRAAAEEARERIADALRGAHMVFITAGMGGGTGTGAAPVVAQIAKEMGILTVGVVSKPFEFEGGKRMRVAEAGSQQLEDHVDSLIVVLNDKLFDVMGDDAEMDKCFQCADDVLNNAVAGIAEIINVDGLVNVDFEDVKTVMGEQGKAMMGTATVAGVDRARLAAEQAVASPLLEGVDLSGARGVLVNITSSRSLRLSETREVMNTIKSYAAEDATVIFGAVYDDAMGDALRVTVVATGLGRAAKKQQSAPMTLLRTGTDNQPVSAVSHGYAPAQHVSTADYGALDTPAVWRNSRETAASHVQALQEKGVDTYDIPAFLRKQAD
notes: recombinant BcFtsZ (BCAL3457) from pET-28a, N-terminal histidine tag removed with PreScission protease
Km: 6.4 ± 0.8 µM
